The source of these data is publication PMC7227406, “Protein Phosphatases Type 2C Group A Interact with and Regulate the Stability of ACC Synthase 7 in Arabidopsis” (Cells, 2020).

The experiment concerns the target T1, GST–ACS7 (Arabidopsis thaliana, UniProt Q9STR4 1-447).
T1 construct: ACS7, 1-aminocyclopropane-1-carboxylate synthase 7, Arabidopsis thaliana; Vector pDEST15; also called recombinant GST–ACS7; N-tagged GST–ACS7; source: E. coli BL21-CodonPlus (DE3)-RIL, purified (Glutathione-Sepharose 4B); not shown: GST, N-terminal, kept
T1 sequence (looked up): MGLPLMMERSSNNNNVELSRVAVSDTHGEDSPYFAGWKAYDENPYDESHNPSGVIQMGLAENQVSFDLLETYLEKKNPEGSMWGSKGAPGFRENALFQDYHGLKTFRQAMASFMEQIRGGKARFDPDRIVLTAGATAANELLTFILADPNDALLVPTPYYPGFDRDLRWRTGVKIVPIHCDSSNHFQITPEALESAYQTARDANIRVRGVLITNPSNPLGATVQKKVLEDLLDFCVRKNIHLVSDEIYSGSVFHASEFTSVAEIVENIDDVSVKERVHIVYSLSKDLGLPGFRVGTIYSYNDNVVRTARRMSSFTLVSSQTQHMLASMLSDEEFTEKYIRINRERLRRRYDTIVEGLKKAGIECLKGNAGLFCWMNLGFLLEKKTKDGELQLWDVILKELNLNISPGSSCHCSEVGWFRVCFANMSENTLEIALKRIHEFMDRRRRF
The experiment is described as follows: pull-down; GST–ACS7 pre-coupled to Glutathione-Sepharose 4B, preincubated with 1 mg/mL BSA; His-tagged ABI1 or ABI2 added in EBC buffer (100 mM NaCl, 0.5% Nonidet P-40, 100 mM NaF, 200 μM sodium orthovanadate, 50 mM Tris-HCl pH 8.0), 1 h, room temperature; washes with NENT buffer at 100/200/300 mM NaCl; immunoblot with anti-GST and anti-His. Conditions: both partners purified.

B1: His–ABI2 (enzyme, Arabidopsis thaliana, UniProt O04719 1-423, looked up)
chain: MDEVSPAVAVPFRPFTDPHAGLRGYCNGESRVTLPESSCSGDGAMKDSSFEINTRQDSLTSSSSAMAGVDISAGDEINGSDEFDPRSMNQSEKKVLSRTESRSLFEFKCVPLYGVTSICGRRPEMEDSVSTIPRFLQVSSSSLLDGRVTNGFNPHLSAHFFGVYDGHGGSQVANYCRERMHLALTEEIVKEKPEFCDGDTWQEKWKKALFNSFMRVDSEIETVAHAPETVGSTSVVAVVFPTHIFVANCGDSRAVLCRGKTPLALSVDHKPDRDDEAARIEAAGGKVIRWNGARVFGVLAMSRSIGDRYLKPSVIPDPEVTSVRRVKEDDCLILASDGLWDVMTNEEVCDLARKRILLWHKKNAMAGEALLPAEKRGEGKDPAAMSAAEYLSKMALQKGSKDNISVVVVDLKGIRKFKSKSLN
notes: ABI2, group A protein phosphatase type 2C, Arabidopsis thaliana; Vector pDEST17; also called His-tagged ABI2; source: E. coli BL21-CodonPlus (DE3)-RIL, purified (Ni-Sepharose 6 Fast Flow)
As for B1, the binding result is “binds”.

B2: His–ABI1 (enzyme, Arabidopsis thaliana, UniProt P49597 1-434, looked up)
chain: MEEVSPAIAGPFRPFSETQMDFTGIRLGKGYCNNQYSNQDSENGDLMVSLPETSSCSVSGSHGSESRKVLISRINSPNLNMKESAAADIVVVDISAGDEINGSDITSEKKMISRTESRSLFEFKSVPLYGFTSICGRRPEMEDAVSTIPRFLQSSSGSMLDGRFDPQSAAHFFGVYDGHGGSQVANYCRERMHLALAEEIAKEKPMLCDGDTWLEKWKKALFNSFLRVDSEIESVAPETVGSTSVVAVVFPSHIFVANCGDSRAVLCRGKTALPLSVDHKPDREDEAARIEAAGGKVIQWNGARVFGVLAMSRSIGDRYLKPSIIPDPEVTAVKRVKEDDCLILASDGVWDVMTDEEACEMARKRILLWHKKNAVAGDASLLADERRKEGKDPAAMSAAEYLSKLAIQRGSKDNISVVVVDLKPRRKLKSKPLN
notes: ABI1, group A protein phosphatase type 2C, Arabidopsis thaliana; Vector pDEST17; also called His-tagged ABI1; source: E. coli BL21-CodonPlus (DE3)-RIL, purified (Ni-Sepharose 6 Fast Flow)
For the molecule B2, the binding result is reported as “binds”.
